Experimental data as given in patent publication US20200317776A1 (published 2020).
Where two headings read alike, the source gives them in different places.

T1: human TREM2 Fc fusion (entire TREM2 ECD; only one Fc arm fused to TREM2) (human, UniProt Q9NZC2 19-174)
T1 construct: also called huTREM2-Fc; recombinant hTREM2
T1 sequence: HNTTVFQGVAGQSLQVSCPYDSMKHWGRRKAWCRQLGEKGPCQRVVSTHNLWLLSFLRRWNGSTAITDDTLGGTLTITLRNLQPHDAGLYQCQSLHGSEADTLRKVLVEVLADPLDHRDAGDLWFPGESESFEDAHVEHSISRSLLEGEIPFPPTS

T2: human TREM2 expressed on cells (human, UniProt Q9NZC2 19-230)
T2 sequence: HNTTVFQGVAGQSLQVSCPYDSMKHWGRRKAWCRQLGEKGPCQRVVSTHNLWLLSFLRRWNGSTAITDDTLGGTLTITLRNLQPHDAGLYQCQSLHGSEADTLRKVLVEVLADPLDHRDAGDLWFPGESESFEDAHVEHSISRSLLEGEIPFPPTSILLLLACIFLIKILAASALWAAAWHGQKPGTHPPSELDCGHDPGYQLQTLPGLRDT

T3: cynomolgus monkey TREM2 Fc fusion (entire TREM2 ECD; only one Fc arm fused to TREM2) (cynomolgus monkey, UniProt Q9NZC2 19-174 (human entry))
T3 construct: also called cyno TREM2-Fc
T3 chain: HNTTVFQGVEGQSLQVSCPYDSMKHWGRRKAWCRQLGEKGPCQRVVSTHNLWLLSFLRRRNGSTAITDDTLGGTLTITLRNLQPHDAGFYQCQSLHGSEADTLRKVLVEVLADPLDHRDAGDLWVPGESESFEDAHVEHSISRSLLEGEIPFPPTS

B1: AL2p-36 (antibody, V domains shown)
VH: QVQLVQSGAEVKKPGASVKVSCKASGYAFSSSWMNWVRQAPGQRLEWIGRIYPGDGDTNYARKFQGRVTITADTSASTAYMELSSLRSEDTAVYYCARLLRNQPGASYAMDYWGQGTLVTVSS
VL: DVVMTQSPDSLAVSLGERATINCRSSQSLVHSNGYTYLHWYQQKPGQSPKLLIYKVSNRFSGVPDRFSGSGSGTDFTLTISSLQAEDVAVYYCSQSTRVPYTFGGGTKVEIK
notes: Fab and IgG formats under one id
B2: AL2p-47 huIgG1 (antibody, V domains shown)
VH: QVQLVQSGAEVKKPGSSVKVSCKASGYAFSSDWMNWVRQAPGQGLEWMGRIYPGEGDTNYARKFHGRVTITADESTSTAYMELSSLRSEDTAVYYCARLLRNKPGESYAMDYWGQGTLVTVSS
VL: DVVMTQTPLSLSVTPGQPASISCRTSQSLVHSNAYTYLHWYLQKPGQSPQLLIYKVSNRVSGVPDRFSGSGSGTDFTLKISRVEAEDVGVYYCSQSTRVPYTFGQGTKLEIKR
B3: AL2p-61 huIgG1 (antibody, V domains shown)
VH: QVQLVQSGAEVKKPGSSVKVSCKASGYAFSSQWMNWVRQAPGQGLEWMGRIYPGEGDTNYARKFQGRVTITADESTSTAYMELSSLRSEDTAVYYCARLLRNQPGESYAMDYWGQGTLVTVSS
VL: GVVMTQTPLSLSVTPGQPASISCRSSQSLVHSNQYTYLHWYLQKPGQSPQLLIYKVSNRRSGVPDRFSGSGSGTDFTLKISRVEAEDVGVYYCSQSTRVPYTFGQGTKLEIKR
B4: AL2p-37 (antibody, IgG1, V domains shown)
VH: QVQLVQSGAEVKKPGASVKVSCKASGYAFSSQWMNWVRQAPGQRLEWIGRIYPGGGDTNYAGKFQGRVTITADTSASTAYMELSSLRSEDTAVYYCARLLRNQPGESYAMDYWGQGTLVTVSS
VL: DVVMTQSPDSLAVSLGERATINCRSSQSLVHSNGYTYLHWYQQKPGQSPKLLIYKVSNRFSGVPDRFSGSGSGTDFTLTISSLQAEDVAVYYCSQSTRVPYTFGGGTKVEIK
notes: Fab and IgG formats under one id; also called AL2p-37 huIgG1
B5: AL2p huIgG1 (human mouse chimeric parental antibody) (antibody, V domains shown)
VH: QVQLQQSGPELVKPGASLKISCKASGYAFSSSWMNWVKQRPGKGLEWIGRIYPGDGDTNYNGEFRVRATLTADTSSTTAYMQLSSLTSEDSAVYFCARLLRNQPGESYAMDYWGQGASVTVSS
VL: DVVMTQTPLSLPVSLGDQASISCRSSQSLVHSNGYTYLHWYLQKPGQSPKLLIYKVSNRFSGVPDRFSGSGSGTDFTLKISRVEADDLGVYFCSQSTRVPYTFGGGTKLEIK
notes: Mouse variable region with human IgG1 Fc region; Fab and IgG formats under one id; also called chimeric parental AL2p antibody as huIgG1
B6: AL2p-4 (antibody, V domains shown)
VH: QVQLVQSGAEVKKPGSSVKVSCKASGYAFSSSWMNWVRQAPGQGLEWMGRIYPGQGDTNYAQKFQGRVTITADESTSTAYMELSSLRSEDTAVYYCARLLRNQPGESYAMDYWGQGTLVTVSS
VL: DVVMTQTPLSLSVTPGQPASISCRSSQSLVHSNGYTYLHWYLQKPGQSPQLLIYKVSNRFSGVPDRFSGSGSGTDFTLKISRVEAEDVGVYYCSQSTRVPYTFGQGTKLEIK

Legend:
[1] = target: T1, human TREM2 Fc fusion (entire TREM2 …); assay: BLI, IgG, avid
Procedure, shortened: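 Avid format: AHQ-loaded IgGs exposed to 100 nM human or cyno TREM2-Fc antigen, 3 min association, 3 min dissociation in buffer. Monovalent format: human TREM2-Fc loaded on AHQ sensors, exposed to 100 nM Fab. Kinetics fit to 1:1 model, run at 25° C.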

[2] = target: T2, human TREM2 expressed on cells; assay: cell-based or functional assay
[3] = target: T4, human TREM2/DAP12 fusion protein (human, UniProt O43914 41-113, limits assumed); assay: cell-based or functional assay
T4 sequence (O43914 other isoform, or with tags, fused parts or gaps limits assumed): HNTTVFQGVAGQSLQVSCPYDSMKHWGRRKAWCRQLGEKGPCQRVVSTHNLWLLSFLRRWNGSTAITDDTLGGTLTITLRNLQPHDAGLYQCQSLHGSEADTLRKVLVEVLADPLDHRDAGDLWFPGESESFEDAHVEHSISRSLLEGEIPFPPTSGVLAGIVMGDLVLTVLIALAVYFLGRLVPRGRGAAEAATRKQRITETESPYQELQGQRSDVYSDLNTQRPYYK

[4] = target: T2, human TREM2 expressed on cells; assay: FACS, human DCs
Procedure, shortened: (§1)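 Cells were BW5147.G.1.4 stably expressing human TREM2 with Dap12, or human monocyte-derived dendritic cells differentiated 6 days with GM-CSF and IL-4. Antibodies bound 1 h on ice in PBS+2% FBS, then PE anti-human secondary 30 min on ice; flow cytometry read-out as mean fluorescence intensity.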

[5] = target: T1, human TREM2 Fc fusion (entire TREM2 …); assay: BLI, Fab, monovalent
[6] = target: T3, cynomolgus monkey TREM2 Fc fusion …; assay: BLI, Fab, monovalent
[7] = target: T2, human TREM2 expressed on cells; assay: FACS, hTREM2 BW cells
Procedure, shortened: as §1

[8] = target: T2, human TREM2 expressed on cells; assay: cell-based or functional assay; remark: listed apart in the source
[9] = target: T4, human TREM2/DAP12 fusion protein; assay: cell-based or functional assay; remark: listed apart in the source
[10] = target: T2, human TREM2 expressed on cells; assay: FACS, hTREM2 BW cells; remark: listed apart in the source
[11] = target: T1, human TREM2 Fc fusion (entire TREM2 …); assay: BLI, Fab, monovalent; remark: listed apart in the source
Protocol: Briefly, IgG's were loaded on-line onto AHQ sensors. Sensors were equilibrated off-line in assay buffer for 30 minutes and then monitored on-line for 60 seconds for baseline establishment. For avid binding measurement, sensors with loaded IgGs were exposed to 100 nM antigen (human TREM2 Fc fusion using the entire TREM2 ECD; only one Fc arm was fused to TREM2) for 3 minutes, afterwards they were transferred to assay buffer for 3 minutes for off-rate measurement. Monovalent binding measurements were obtained by loading human TREM2 Fe fusion antigens to AHQ sensor and followed by exposure to 100 nM TREM2 antibody Fab. Kinetics data were fit using a 1:1 binding model in the data analysis software provided by ForteBio. Assay was run at room temperature (25° C.).

[12] = target: T4, human TREM2/DAP12 fusion protein; assay: cell-based or functional assay; remark: listed apart in the source
[13] = target: T2, human TREM2 expressed on cells; assay: FACS, hTREM2 BW cells; remark: listed apart in the source
Protocol: To examine cell binding of anti-TREM2 antibodies, recombinant, human TREM2-expressing BW5147.G.1.4 cells (ATCC® TIB48™) were established by stably expressing either mouse TREM2 or human TREM2 together with Dap12 using viral infection. Cells were harvested by scraping, washed in PBS, counted and plated on 96-well U bottom plates at 1)(10⁵ cells/well. The plates were spun at 1,400 rpm for 3 minutes and primary anti-TREM2 or control antibodies were added in FACS buffer (PBS H2% FBS) and incubated on ice for one hour. Cells were subsequently centrifuged as before and washed thrice with FACS buffer. Cells were then incubated with anti-human PE conjugated secondary antibody (BD Biosciences) in FACS buffer for 30 minutes on ice. Cells were again washed thrice with FACS buffer and analyzed on a BD FACS Canto. Binding was measured as mean fluorescence intensity in the APC channel.

[14] = target: T4, human TREM2/DAP12 fusion protein; assay: cell-based or functional assay; remark: listed apart in the source

Binder | Kd [1] [nM] | Survival huDCs plate bound IgG, AUC [2] [AUC] | Luciferase activation plate bound 33 nM IgG, FOC [3] [FOC] | Luciferase activation soluble 10 nM IgG, FOC [3] [FOC] | MFI [4] [MFI] | Kd [5] [nM] | Kd [6] [nM] | Kd [7] [nM] | EC50 viability, dendritic cells D558 [8] [nM] | EC50 viability, dendritic cells D559 [8] [nM] | EC50 viability, dendritic cells D560 [8] [nM] | EC50 viability, macrophages D558 [8] [nM] | EC50 viability, macrophages D559 [8] [nM] | EC50 viability, macrophages D560 [8] [nM] | Plate bound IgG, fold over unstimulated control (25 nM IgG) [9] [fold] | Soluble IgG, EC50 [9] [nM] | Soluble IgG, fold over control IgG (17 nM IgG) [9] [fold] | Bmax (MFI) [10] [MFI] | Kd [10] [nM] | also measured
B1 | 0.495 | 1.14e+06 | 22.7 | 2.64 | 240 | 12.1 | 7.38 | 1.7 |  |  |  |  |  |  |  |  |  |  |  | 
B2 |  |  |  |  |  |  |  |  | 1.02 | 1.13 | 0.672 | 0.013 | 1.56 | 1.25 | 3.94 | 6.5 | 8.77 | 226000 | 1.2 | 
B3 |  |  |  |  |  |  |  |  |  |  |  |  |  |  | 8.97 | 5.24 | 10.8 | 211000 | 0.42 | 
B4 | 0.779 | 680000 | 9.42 | 2.16 | 194 | 23.8 | 16.1 | 2.9 | 4.19 | 6.16 | 4.47 | 1.24 | 18.3 | 31.8 | 1.56 | 9.41 | 7.63 | 216000 | 1.17 | 
B5 |  |  |  |  |  |  |  |  | 95.7 | 41.2 | 55.1 | 12.3 | 146 | 129 | 1.29 | 14.6 | 4.51 | 199000 | 1.32 | Kd [11]: 102 nM; Soluble luciferase activation at 10 µg/ml Fold over control [12]: 3.55 fold over control; cell binding (FOB) [13]: 79 FOB
B6 |  |  | 7.42 | 1.45 |  |  |  |  |  |  |  |  |  |  |  |  |  |  |  | luciferase activation, soluble IgG, EC50 [14]: 66.2 nM
